Reference: IntAct's records for PubMed 17043237

B1: Pre-B-cell leukemia transcription factor-interacting protein 1 (Homo sapiens), Q96AQ6-1 (parent)
chain: MASCPDSDNSWVLAGSESLPVETLGPASRMDPESERALQAPHSPSKTDGKELAGTMDGEGTLFQTESPQSGSILTEETEVKGTLEGDVCGVEPPGPGDTVVQGDLQETTVVTGLGPDTQDLEGQSPPQSLPSTPKAAWIREEGRCSSSDDDTDVDMEGLRRRRGREAGPPQPMVPLAVENQAGGEGAGGELGISLNMCLLGALVLLGLGVLLFSGGLSESETGPMEEVERQVLPDPEVLEAVGDRQDGLREQLQAPVPPDSVPSLQNMGLLLDKLAKENQDIRLLQAQLQAQKEELQSLMHQPKGLEEENAQLRGALQQGEAFQRALESELQQLRARLQGLEADCVRGPDGVCLSGGRGPQGDKAIREQGPREQEPELSFLKQKEQLEAEAQALRQELERQRRLLGSVQQDLERSLQDASRGDPAHAGLAELGHRLAQKLQGLENWGQDPGVSANASKAWHQKSHFQNSREWSGKEKWWDGQRDRKAEHWKHKKEESGRERKKNWGGQEDREPAGRWKEGRPRVEESGSKKEGKRQGPKEPPRKSGSFHSSGEKQKQPRWREGTKDSHDPLPSWAELLRPKYRAPQGCSGVDECARQEGLTFFGTELAPVRQQELASLLRTYLARLPWAGQLTKELPLSPAFFGEDGIFRHDRLRFRDFVDALEDSLEEVAVQQTGDDDEVDDFEDFIFSHFFGDKALKKRSGKKDKHSQSPRAAGPREGHSHSHHHHHRG

Variants of: B1
Details: with esr1_human ESR1, P03372
Chain of esr1_human ESR1, P03372 (P03372 whole entry): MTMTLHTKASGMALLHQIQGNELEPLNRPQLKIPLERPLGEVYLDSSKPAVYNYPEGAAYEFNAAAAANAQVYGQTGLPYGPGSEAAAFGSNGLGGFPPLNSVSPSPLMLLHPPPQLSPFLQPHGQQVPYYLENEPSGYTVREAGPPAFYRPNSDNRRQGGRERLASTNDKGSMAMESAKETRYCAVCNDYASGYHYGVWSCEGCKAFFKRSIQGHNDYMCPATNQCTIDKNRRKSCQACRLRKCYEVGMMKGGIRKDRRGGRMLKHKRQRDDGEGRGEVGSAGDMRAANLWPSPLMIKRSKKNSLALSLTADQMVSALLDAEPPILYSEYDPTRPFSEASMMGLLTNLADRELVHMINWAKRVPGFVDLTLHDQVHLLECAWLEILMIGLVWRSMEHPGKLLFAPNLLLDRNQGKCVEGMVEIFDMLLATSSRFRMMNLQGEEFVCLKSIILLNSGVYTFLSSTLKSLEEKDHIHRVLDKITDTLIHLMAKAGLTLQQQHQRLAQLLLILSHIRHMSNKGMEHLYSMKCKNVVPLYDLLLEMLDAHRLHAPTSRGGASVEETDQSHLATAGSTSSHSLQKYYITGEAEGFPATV

Variant	effect of a mutation on the interaction
L615A;L618A;L619A	disrupting interaction strength
